# Assay results reported in patent US20220195012A1.
# Legend:
# [1] = target: AP C3-convertase (C3bBb) (UniProt P01024); assay: cell-based or functional assay
# [2] = target: CP C3-convertase (C4b2a) (UniProt P0C0L4); assay: cell-based or functional assay
# Chain of CP C3-convertase (C4b2a) (P0C0L4 757-1446 limits assumed, chain 1 of 4): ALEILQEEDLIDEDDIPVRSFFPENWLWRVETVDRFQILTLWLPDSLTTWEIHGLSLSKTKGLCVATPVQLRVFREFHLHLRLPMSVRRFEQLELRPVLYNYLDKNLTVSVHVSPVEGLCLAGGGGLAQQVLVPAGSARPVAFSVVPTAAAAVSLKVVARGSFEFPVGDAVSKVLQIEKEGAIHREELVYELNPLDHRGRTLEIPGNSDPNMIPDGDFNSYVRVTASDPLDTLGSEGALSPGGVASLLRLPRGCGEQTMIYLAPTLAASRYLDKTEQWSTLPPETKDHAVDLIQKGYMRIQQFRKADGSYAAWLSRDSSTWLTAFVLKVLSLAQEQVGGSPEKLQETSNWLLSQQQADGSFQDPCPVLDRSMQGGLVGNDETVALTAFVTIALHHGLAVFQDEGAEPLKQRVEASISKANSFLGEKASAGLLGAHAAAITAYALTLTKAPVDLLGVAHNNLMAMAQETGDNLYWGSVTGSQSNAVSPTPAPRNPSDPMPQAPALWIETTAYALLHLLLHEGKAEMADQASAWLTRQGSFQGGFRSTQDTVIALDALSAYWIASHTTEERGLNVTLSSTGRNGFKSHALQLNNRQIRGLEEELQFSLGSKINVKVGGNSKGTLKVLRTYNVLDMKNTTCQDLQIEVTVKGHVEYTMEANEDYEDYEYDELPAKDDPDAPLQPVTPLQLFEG
# Chain of CP C3-convertase (C4b2a) (P0C0L4 20-675 limits assumed, chain 2 of 4): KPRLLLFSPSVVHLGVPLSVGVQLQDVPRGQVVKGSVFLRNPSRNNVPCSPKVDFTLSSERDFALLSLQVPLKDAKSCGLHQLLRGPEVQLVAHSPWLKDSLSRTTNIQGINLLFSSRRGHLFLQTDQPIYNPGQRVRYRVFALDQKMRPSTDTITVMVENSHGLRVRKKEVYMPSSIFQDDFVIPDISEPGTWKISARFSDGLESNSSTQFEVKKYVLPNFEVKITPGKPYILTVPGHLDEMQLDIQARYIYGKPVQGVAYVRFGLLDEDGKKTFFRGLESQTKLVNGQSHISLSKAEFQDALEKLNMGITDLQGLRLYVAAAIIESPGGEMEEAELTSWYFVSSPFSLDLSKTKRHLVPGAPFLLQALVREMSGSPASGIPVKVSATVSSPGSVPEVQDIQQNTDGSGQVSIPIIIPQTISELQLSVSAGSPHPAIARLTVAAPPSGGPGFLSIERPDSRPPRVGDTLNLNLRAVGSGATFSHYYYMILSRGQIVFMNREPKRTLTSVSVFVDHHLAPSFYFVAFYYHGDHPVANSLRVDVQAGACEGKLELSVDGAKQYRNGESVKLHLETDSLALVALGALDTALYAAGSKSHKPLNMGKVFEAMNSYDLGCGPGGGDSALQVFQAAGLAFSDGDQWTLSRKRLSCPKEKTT
# Chain of CP C3-convertase (C4b2a) (P0C0L4 1454-1744 limits assumed, chain 3 of 4): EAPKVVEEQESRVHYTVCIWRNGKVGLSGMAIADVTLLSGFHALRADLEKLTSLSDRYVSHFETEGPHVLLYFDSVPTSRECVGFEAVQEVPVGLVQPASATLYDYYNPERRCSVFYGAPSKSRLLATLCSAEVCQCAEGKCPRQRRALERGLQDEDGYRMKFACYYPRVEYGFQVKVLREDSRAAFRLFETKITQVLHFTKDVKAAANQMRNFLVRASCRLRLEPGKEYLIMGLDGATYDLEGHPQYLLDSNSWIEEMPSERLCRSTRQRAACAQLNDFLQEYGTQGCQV
# Chain of CP C3-convertase (C4b2a) (P06681 244-752 limits assumed, chain 4 of 4, further chain): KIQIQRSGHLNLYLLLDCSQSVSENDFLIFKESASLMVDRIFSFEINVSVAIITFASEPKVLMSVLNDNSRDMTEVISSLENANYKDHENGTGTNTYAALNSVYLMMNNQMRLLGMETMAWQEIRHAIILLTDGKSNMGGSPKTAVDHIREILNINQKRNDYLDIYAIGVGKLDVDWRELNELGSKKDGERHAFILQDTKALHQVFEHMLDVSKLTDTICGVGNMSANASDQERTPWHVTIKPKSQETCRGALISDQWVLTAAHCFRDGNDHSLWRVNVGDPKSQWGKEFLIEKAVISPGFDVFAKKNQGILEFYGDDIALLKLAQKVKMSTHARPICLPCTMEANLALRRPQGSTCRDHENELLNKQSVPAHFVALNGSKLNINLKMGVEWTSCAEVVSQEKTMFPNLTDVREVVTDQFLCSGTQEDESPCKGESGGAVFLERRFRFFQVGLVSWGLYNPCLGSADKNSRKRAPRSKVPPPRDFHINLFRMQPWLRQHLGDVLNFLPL
# Chain of D2D3 (DAF deletion mutant D2-D3) (P08174 98-224 limits assumed, stated change not applied): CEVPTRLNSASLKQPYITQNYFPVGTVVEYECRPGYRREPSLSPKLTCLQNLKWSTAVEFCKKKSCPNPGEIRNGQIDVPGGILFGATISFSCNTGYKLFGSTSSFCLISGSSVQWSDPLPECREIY
# Chain of AP C3-convertase (C3bBb) (P01024 23-667 limits assumed, chain 1 of 3): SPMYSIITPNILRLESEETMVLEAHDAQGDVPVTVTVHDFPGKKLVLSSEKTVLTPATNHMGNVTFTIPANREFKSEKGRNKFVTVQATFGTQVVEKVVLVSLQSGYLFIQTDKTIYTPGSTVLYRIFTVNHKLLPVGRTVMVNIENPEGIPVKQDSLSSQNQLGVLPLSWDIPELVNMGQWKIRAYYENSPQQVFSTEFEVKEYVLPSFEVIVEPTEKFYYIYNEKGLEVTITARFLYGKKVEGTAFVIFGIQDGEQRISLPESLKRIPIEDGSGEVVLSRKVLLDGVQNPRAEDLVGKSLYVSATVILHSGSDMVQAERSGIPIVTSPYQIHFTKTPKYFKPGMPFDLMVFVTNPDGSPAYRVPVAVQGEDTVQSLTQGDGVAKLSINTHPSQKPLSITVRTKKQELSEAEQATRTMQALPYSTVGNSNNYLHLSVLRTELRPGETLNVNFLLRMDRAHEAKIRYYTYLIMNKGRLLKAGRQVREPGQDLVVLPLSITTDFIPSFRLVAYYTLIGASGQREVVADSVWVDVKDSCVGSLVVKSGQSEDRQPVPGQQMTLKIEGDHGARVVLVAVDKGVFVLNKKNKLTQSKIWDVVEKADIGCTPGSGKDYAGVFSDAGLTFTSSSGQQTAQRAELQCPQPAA
# Chain of AP C3-convertase (C3bBb) (P01024 749-1663 limits assumed, chain 2 of 3): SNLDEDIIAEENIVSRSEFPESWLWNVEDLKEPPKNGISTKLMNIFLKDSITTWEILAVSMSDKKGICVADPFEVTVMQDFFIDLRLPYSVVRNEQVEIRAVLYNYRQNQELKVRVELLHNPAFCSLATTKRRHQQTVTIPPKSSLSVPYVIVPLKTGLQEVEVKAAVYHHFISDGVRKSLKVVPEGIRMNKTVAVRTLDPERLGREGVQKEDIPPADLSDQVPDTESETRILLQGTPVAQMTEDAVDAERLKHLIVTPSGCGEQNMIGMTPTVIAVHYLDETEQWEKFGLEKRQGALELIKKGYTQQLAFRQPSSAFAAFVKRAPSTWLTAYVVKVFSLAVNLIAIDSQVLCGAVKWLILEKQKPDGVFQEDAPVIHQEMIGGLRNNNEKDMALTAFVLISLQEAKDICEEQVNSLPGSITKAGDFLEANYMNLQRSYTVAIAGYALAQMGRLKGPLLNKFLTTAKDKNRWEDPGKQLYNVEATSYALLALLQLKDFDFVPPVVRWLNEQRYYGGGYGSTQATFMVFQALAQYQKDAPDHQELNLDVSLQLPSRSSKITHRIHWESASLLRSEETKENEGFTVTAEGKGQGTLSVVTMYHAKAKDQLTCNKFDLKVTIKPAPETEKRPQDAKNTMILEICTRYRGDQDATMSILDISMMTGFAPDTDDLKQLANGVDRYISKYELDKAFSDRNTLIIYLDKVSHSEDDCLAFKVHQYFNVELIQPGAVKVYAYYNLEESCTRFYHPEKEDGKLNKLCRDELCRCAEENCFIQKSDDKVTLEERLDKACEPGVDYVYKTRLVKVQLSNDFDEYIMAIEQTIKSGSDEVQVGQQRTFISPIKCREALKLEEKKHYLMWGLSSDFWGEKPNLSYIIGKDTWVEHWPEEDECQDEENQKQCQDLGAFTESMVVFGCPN
# Chain of AP C3-convertase (C3bBb) (P00751 260-764 limits assumed, chain 3 of 3, further chain): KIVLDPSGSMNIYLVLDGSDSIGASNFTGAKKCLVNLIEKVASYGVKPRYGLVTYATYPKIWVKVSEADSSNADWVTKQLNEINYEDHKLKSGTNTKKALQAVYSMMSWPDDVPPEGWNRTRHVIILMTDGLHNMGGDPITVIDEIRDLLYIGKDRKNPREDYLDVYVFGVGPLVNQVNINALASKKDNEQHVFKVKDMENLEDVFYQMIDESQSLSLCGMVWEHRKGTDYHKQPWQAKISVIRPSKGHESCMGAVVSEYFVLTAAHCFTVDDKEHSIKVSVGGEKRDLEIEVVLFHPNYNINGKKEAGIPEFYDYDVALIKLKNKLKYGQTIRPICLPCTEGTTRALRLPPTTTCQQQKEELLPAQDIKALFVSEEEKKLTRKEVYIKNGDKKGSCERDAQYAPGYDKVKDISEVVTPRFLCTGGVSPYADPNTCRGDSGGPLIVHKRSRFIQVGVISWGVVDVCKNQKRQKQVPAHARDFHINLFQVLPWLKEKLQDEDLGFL
Substance,AP-DAA IC50 [1] [µM],Relative AP-DAA [1],CP-DAA IC50 [2] [µM],Relative CP-DAA [2],"AP-DAA, fold reduction compared to DAF [1] [fold]"
D2D3 (DAF deletion mutant D2-D3) (from UniProt P08174 98-224),> 0.01,< 0.2,10.9,< 0.3,–
D2D3D4M4 (DAF-MCP chimera),0.0056,0.4,5.7,0.4,10
